B1: NR2E3 LBD (residues 192-410), wild type, as Gal4DBD–NR2E3LBD and VP16AD–NR2E3LBD [human] / itself (parent complex)
chain: DENIDVTSNDPEFPSSPYSSSSPCGLDSIHETSARLLFMAVKWAKNLPVFSSLPFRDQVILLEEAWSELFLLGAIQWSLPLDSCPLLAPPEASAAGGAQGRLTLASMETRVLQETISRFRALAVDPTEFACMKALVLFKPETRGLKDPEHVEALQDQSQVMLSQHSKAHHPSQPVRFGKLLLLLPSLRFITAERIELLFFRKTIGNTPMEKLLCDMFKN

Variants of: B1
Assay: mammalian two hybrid assay; pBind-PNR L375R + pACT-PNR L375R; parent: 0.42; read off a plot

Q: Which response does the source give for DENIDVTSNDPEFPSSPYSSSSPCGLDSIHETSARLLFMAVKWAKNLPVFSSLPFRDQVILLEEAWSELFLLGAIQWSLPLDSCPLLAPPEASAAGGAQGRLTLASMETRVLQETISRFRALAVDPTEFACMKALVLFKPETRGLKDPEHVEALQDQSQVMLSQHSKAHHPSQPVRFGKLLLLRPSLRFITAERIELLFFRKTIGNTPMEKLLCDMFKN [chain 1 L184R] here?
A: ~0.045 RLU

Variants of: B1
Assay: mammalian two hybrid assay; pBind-PNR L372R + pACT-PNR L372R; parent: 0.42; read off a plot

Q: How did the response turn out when DENIDVTSNDPEFPSSPYSSSSPCGLDSIHETSARLLFMAVKWAKNLPVFSSLPFRDQVILLEEAWSELFLLGAIQWSLPLDSCPLLAPPEASAAGGAQGRLTLASMETRVLQETISRFRALAVDPTEFACMKALVLFKPETRGLKDPEHVEALQDQSQVMLSQHSKAHHPSQPVRFGKLRLLLPSLRFITAERIELLFFRKTIGNTPMEKLLCDMFKN [chain 1 L181R] was run?
A: ~0.045 RLU

Variants of: B1
Assay: mammalian two hybrid assay; pBind-PNR L372/375R + pACT-PNR L372/375R; parent: 0.42; read off a plot

Q: How did the response turn out when DENIDVTSNDPEFPSSPYSSSSPCGLDSIHETSARLLFMAVKWAKNLPVFSSLPFRDQVILLEEAWSELFLLGAIQWSLPLDSCPLLAPPEASAAGGAQGRLTLASMETRVLQETISRFRALAVDPTEFACMKALVLFKPETRGLKDPEHVEALQDQSQVMLSQHSKAHHPSQPVRFGKLRLLRPSLRFITAERIELLFFRKTIGNTPMEKLLCDMFKN [chain 1 L181R, chain 1 L184R] was run?
A: ~0.055 RLU

From publication PMC3771917, “The Crystal Structure of the Orphan Nuclear Receptor NR2E3/PNR Ligand Binding Domain Reveals a Dimeric Auto-Repressed Conformation” (PLoS ONE, 2013)
